B1: HDV Ribozyme (parent)
chain: GGCCGGCAUGGUCCCAGCCUCCUCGCUGGCGCCGGCUGGGCAACAUUCCGAGGGGACCGUCCCCUCGGUAAUGGCGAAUGGGACCCA

Variants of: B1
Assay: self-cleavage, relative activity (ratio to wild type); higher = more cleavage; co-transcriptional
U27A G29A showed a self-cleavage of 0.135.
Variant U27A G59C has a self-cleavage of 0.939.
Work on U27A G59U yielded a self-cleavage of 0.95.
C26G C66A showed a self-cleavage of 1.05.
C26U G31C gave a self-cleavage of 0.542.
U27A A70C gave a self-cleavage of 0.782.
With C26G C85U the self-cleavage was 0.956.
Variant C26U U47C has a self-cleavage of 1.02.
With C26G G29C the self-cleavage was 0.0504.
In the case of U27A G34A, the self-cleavage is reported as 0.256.
For C26G G34C, the self-cleavage was 0.
C26G A83G showed a self-cleavage of 0.851.
Variant C26G A83U has a self-cleavage of 0.917.
Work on C26A G53U yielded a self-cleavage of 0.932.
With U27A C85G the self-cleavage was 0.793.
In the case of C26A G52C, the self-cleavage is reported as 0.872.
C26U C41A gave a self-cleavage of 1.15.
U27A C57A gave a self-cleavage of 0.855.
U27A A51C showed a self-cleavage of 0.86.
C26G U72G gave a self-cleavage of 0.755.
Variant C26G U72A has a self-cleavage of 0.615.
For C26G G74A, the self-cleavage was 0.441.
For C26G G74C, the self-cleavage was 0.0573.
Work on U27A C41U yielded a self-cleavage of 1.07.
With C26G G50A the self-cleavage was 0.923.
In the case of U27A C75G, the self-cleavage is reported as 0.095.
In the case of C26U G82C, the self-cleavage is reported as 0.431.
C26G U37C showed a self-cleavage of 1.01.
In the case of C26G U37G, the self-cleavage is reported as 0.111.
Work on C26U U46A yielded a self-cleavage of 0.731.
C26U U46G gave a self-cleavage of 0.787.
With C26U C62G the self-cleavage was 0.618.
Variant C26U C62U has a self-cleavage of 1.1.
With C26U C62A the self-cleavage was 1.08.
Work on C26G G53U yielded a self-cleavage of 0.812.
C26U G40U gave a self-cleavage of 1.03.
With C26U A43C the self-cleavage was 0.831.
Work on C26U C61U yielded a self-cleavage of 0.941.
With C26U C61A the self-cleavage was 1.06.
Variant C26G U65C has a self-cleavage of 1.16.
For C26G A87G, the self-cleavage was 1.07.
Variant C26G A87C has a self-cleavage of 1.02.
U27A G53C showed a self-cleavage of 0.831.
For C26U A45U, the self-cleavage was 0.77.
For C26U C85G, the self-cleavage was 1.22.
With C26U C85U the self-cleavage was 0.935.
Work on C26G G55C yielded a self-cleavage of 1.04.
For C26G G38A, the self-cleavage was 0.0978.
Variant U27A G52U has a self-cleavage of 0.846.
C26A G74C showed a self-cleavage of 0.237.
C26A G74U showed a self-cleavage of 0.519.
C26G G54A showed a self-cleavage of 0.655.
For C26A G68U, the self-cleavage was 0.929.
C26A G68C gave a self-cleavage of 0.87.
U27A C49G showed a self-cleavage of 0.617.
Variant C26U C30G has a self-cleavage of 0.0941.
Variant C26A G55U has a self-cleavage of 1.17.
Variant C26A G55C has a self-cleavage of 0.862.
With U27A A87U the self-cleavage was 0.602.
In the case of U27A A87G, the self-cleavage is reported as 0.847.
Work on U27A C64A yielded a self-cleavage of 0.703.
Work on U27A C64G yielded a self-cleavage of 1.05.
C26A G54U showed a self-cleavage of 1.03.
Work on C26U A42C yielded a self-cleavage of 0.308.
In the case of C26G A51C, the self-cleavage is reported as 1.13.
For C26U U60G, the self-cleavage was 0.831.
With C26U U60A the self-cleavage was 1.05.
In the case of U27A A78G, the self-cleavage is reported as 0.249.
In the case of U27A A78C, the self-cleavage is reported as 0.0573.
U27A C61U showed a self-cleavage of 0.997.
Variant U27A C61G has a self-cleavage of 0.504.
Work on C26G A45C yielded a self-cleavage of 0.364.
With C26G A45U the self-cleavage was 0.895.
C26G A45G showed a self-cleavage of 1.04.
Work on U27A C33U yielded a self-cleavage of 1.01.
For U27A C33A, the self-cleavage was 0.256.
In the case of C26G C44U, the self-cleavage is reported as 1.04.
Work on C26U A77C yielded a self-cleavage of 0.883.
C26A U65C showed a self-cleavage of 1.21.
With C26A G67U the self-cleavage was 1.04.
With C26A G67C the self-cleavage was 0.985.
Variant C26U C66G has a self-cleavage of 0.861.
C26U G34U gave a self-cleavage of 0.767.
C26U U79G showed a self-cleavage of 1.03.
Work on C26U U79A yielded a self-cleavage of 1.04.
Variant C26A U27C has a self-cleavage of 1.04.
Work on C26A U27G yielded a self-cleavage of 0.733.
In the case of C26G C61U, the self-cleavage is reported as 1.06.
Work on C26G C61G yielded a self-cleavage of 0.811.
In the case of U27A C66U, the self-cleavage is reported as 0.789.
Variant C26U U69G has a self-cleavage of 0.96.
Variant C26U G38U has a self-cleavage of 0.616.
Work on C26A U72C yielded a self-cleavage of 0.867.
U27A C62G gave a self-cleavage of 0.929.
For U27A C62A, the self-cleavage was 0.872.
C26U A83G gave a self-cleavage of 0.776.
Variant C26U A83U has a self-cleavage of 0.79.
In the case of C26G C58U, the self-cleavage is reported as 0.931.
Variant U27A C30G has a self-cleavage of 0.166.
Variant U27A G54A has a self-cleavage of 0.961.
For C26G C33A, the self-cleavage was 0.298.
C26A U47G showed a self-cleavage of 0.923.
C26A U47A gave a self-cleavage of 0.731.
Work on C26U G73A yielded a self-cleavage of 0.747.
With C26G A56G the self-cleavage was 0.795.
C26G G80C showed a self-cleavage of 0.212.
With C26A G82A the self-cleavage was 0.721.
C26G G81U gave a self-cleavage of 0.567.
C26U G68C gave a self-cleavage of 1.03.
C26U G68A showed a self-cleavage of 1.02.
C26U G68U gave a self-cleavage of 1.13.
C26U G81A gave a self-cleavage of 0.888.
For C26U G81U, the self-cleavage was 0.439.
With C26G U60G the self-cleavage was 0.525.
With C26G C57U the self-cleavage was 1.02.
Variant C26U A56G has a self-cleavage of 1.08.
With U27A G74A the self-cleavage was 0.0437.
For U27A G74U, the self-cleavage was 0.427.
C26G G76U showed a self-cleavage of 0.916.
Variant C26U U27A has a self-cleavage of 0.886.
With C26G A42C the self-cleavage was 0.158.
C26G A42G gave a self-cleavage of 0.639.
C26A G80U gave a self-cleavage of 0.398.
Work on C26A G80C yielded a self-cleavage of 0.348.
Variant C26A G80A has a self-cleavage of 0.544.
Variant C26G G28A has a self-cleavage of 0.0449.
C26G G31C showed a self-cleavage of 0.284.
C26G G31U showed a self-cleavage of 0.48.
For C26G G31A, the self-cleavage was 0.744.
In the case of C26G C62A, the self-cleavage is reported as 0.985.
In the case of C26G C62U, the self-cleavage is reported as 1.09.
C26U G50U gave a self-cleavage of 1.12.
In the case of C26U G50C, the self-cleavage is reported as 1.
C26G A78C gave a self-cleavage of 0.
Work on U27A C44A yielded a self-cleavage of 0.369.
In the case of U27A C44G, the self-cleavage is reported as 0.289.
C26G A70U gave a self-cleavage of 0.875.
In the case of C26U C63G, the self-cleavage is reported as 0.883.
In the case of C26G C30G, the self-cleavage is reported as 0.
For U27A C86A, the self-cleavage was 0.733.
With U27A G38C the self-cleavage was 0.0665.
For C26U G74U, the self-cleavage was 0.777.
For C26A U37A, the self-cleavage was 0.166.
C26A U37G gave a self-cleavage of 0.19.
For C26U A78C, the self-cleavage was 0.35.
C26G U46G gave a self-cleavage of 0.554.
C26G A43G gave a self-cleavage of 0.437.
With C26G G82U the self-cleavage was 0.604.
C26A G59A gave a self-cleavage of 1.
For U27A A56G, the self-cleavage was 1.08.
For C26U G80U, the self-cleavage was 0.433.
Work on C26U C49G yielded a self-cleavage of 0.973.
Variant C26U C49U has a self-cleavage of 0.89.
C26U C49A gave a self-cleavage of 1.11.
Variant U27A G68C has a self-cleavage of 0.688.
With U27A G55A the self-cleavage was 1.08.
Work on C26G G39A yielded a self-cleavage of 0.18.
Work on U27A G28U yielded a self-cleavage of 0.158.
For C26U A70U, the self-cleavage was 1.01.
U27A G67A showed a self-cleavage of 1.32.
Variant U27A G67C has a self-cleavage of 0.59.
Variant C26G G67C has a self-cleavage of 0.8.
In the case of C26U G52A, the self-cleavage is reported as 1.14.
For C26U G52U, the self-cleavage was 0.956.
U27A G73A gave a self-cleavage of 0.391.
C26G C84U showed a self-cleavage of 0.696.
Work on U27A C63G yielded a self-cleavage of 0.764.

Source: the RNAGym collection of RNA variant scans (doi:10.7554/elife.80360)
